In US20140370030A1 (CENTRE NATIONAL DE LA RECHERCHE SCIENTIFIQUE CNRS, published 2014):

Key:
[1] = biological target: recombinant human sPLA2-X (human group X secreted phospholipase A2), mature enzyme (human) (UniProt O15496); assay: indirect ELISA on wells coated with 50 ng recombinant human sPLA2-X; one-site saturation fit, relative Kd
[2] = biological target: T1, recombinant human sPLA2-X (human group X secreted phospholipase A2), mature enzyme (human, UniProt O15496 43-165); assay: indirect ELISA on coated recombinant human sPLA2-X
T1 construct: also called hGX
T1 sequence: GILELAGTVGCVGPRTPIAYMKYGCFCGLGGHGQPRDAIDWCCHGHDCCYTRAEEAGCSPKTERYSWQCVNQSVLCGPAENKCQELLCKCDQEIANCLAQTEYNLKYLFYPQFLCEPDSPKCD

[3] = biological target: T1, recombinant human sPLA2-X (human group …); assay: indirect ELISA on wells coated with 50 ng recombinant human sPLA2-X; one-site saturation fit, relative Kd
[4] = biological target: T1, recombinant human sPLA2-X (human group …); assay: indirect ELISA on coated recombinant human sPLA2-X, anti-mouse IgG-HRP detection; one-site saturation fit
[5] = biological target: T1, recombinant human sPLA2-X (human group …); assay: indirect ELISA on coated recombinant human sPLA2-X, streptavidin-HRP detection; one-site saturation fit

commercially available monoclonal antibody H9 (ref. SC-365730, Santa Cruz Biotechnology)
Kd [1]: 8.94 nM

B1: biotinylated monoclonal antibody #9C12 (antibody, V domains shown)
VH: QIQLVQSGPELKKPGETVKISCKASGYTFTNYGMNWVKQAPGKGLKWMGWIKTNTGEPTYAEEFKGRFAFSLETSASTAYLQINNLKNEDTATYFCARGNYYRPRRYFDYWGQGTTLTVSS
VL: DIQMSQSPASLSASVGETVTMTCRASENLYSNLAWYQQKQGKSPQLLVYAATNLADGVPSRFSGSGSGTQFSLKINSLQPEDFGSYYCQHFYVTPYTFGGGTKLEIKR
modifications: biotinylated (Pierce kit ref. 21435); sites not stated
notes: also called #9C12-Biot
binding result [2]: binds

B2: monoclonal anti-sPLA2-X antibody #9C12 (antibody, V domains shown)
VH: QIQLVQSGPELKKPGETVKISCKASGYTFTNYGMNWVKQAPGKGLKWMGWIKTNTGEPTYAEEFKGRFAFSLETSASTAYLQINNLKNEDTATYFCARGNYYRPRRYFDYWGQGTTLTVSS
VL: DIQMSQSPASLSASVGETVTMTCRASENLYSNLAWYQQKQGKSPQLLVYAATNLADGVPSRFSGSGSGTQFSLKINSLQPEDFGSYYCQHFYVTPYTFGGGTKLEIKR
notes: Mouse monoclonal antibody from a hybridoma, purified by protein A; also called 9C12 antibody; hybridoma CNCM I-4524
Kd [3]: 0.181 nM

B3: monoclonal anti-sPLA2-X antibody #8D9 (antibody, V domains shown)
VH: EVKLVESGGGLVKPGGSLKLSCAASGFTFSNYPMSWVRQTPAKRLEWVATISSGGDDTYYPDSVKGRFTISRDNARNTLYLQMSCLRSEDTALYYCARPQLGPWGQGTTLTVSS
VL: DIVMTQAAPSVPVTPGDSVSISCRSSKSLLHSNGITYLYWFLQRPGQSPQRLIYYMSNLASGVPDRFSGRGSGTDFTLRISRVEAEDVGVYYCMQSLEYPLTFGAGTKLELKR
notes: Mouse monoclonal antibody from a hybridoma, purified by protein A; also called 8D9 antibody; hybridoma CNCM I-4523
Kd [4]: 0.246 nM
Kd [3]: 0.327 nM

B4: biotinylated monoclonal antibody #8D9 (antibody, V domains shown)
VH: EVKLVESGGGLVKPGGSLKLSCAASGFTFSNYPMSWVRQTPAKRLEWVATISSGGDDTYYPDSVKGRFTISRDNARNTLYLQMSCLRSEDTALYYCARPQLGPWGQGTTLTVSS
VL: DIVMTQAAPSVPVTPGDSVSISCRSSKSLLHSNGITYLYWFLQRPGQSPQRLIYYMSNLASGVPDRFSGRGSGTDFTLRISRVEAEDVGVYYCMQSLEYPLTFGAGTKLELKR
modifications: biotinylated (Pierce kit ref. 21435); sites not stated
notes: also called #8D9-Biot; 8D9-biot
Kd [5]: 0.353 nM
